Reference: patent US7425614B2, “Neuroprotective therapeutics preventing ERK/MAPK activation through the NMDA receptor” (Children's Medical Center Corporation, priority 2003, dated 2008)

Molecular target: T1, RasGRF1 (Mus musculus, UniProt P27671)
T1 construct: In vitro translated full-length RasGRF1 and AU1-tagged NR2B fragments were coimmunopecipitated with AU1 antibody; made in house; host or cells: cell-free in vitro translation (TNT system, [35S]methionine)
T1 sequence (P27671 1-1262): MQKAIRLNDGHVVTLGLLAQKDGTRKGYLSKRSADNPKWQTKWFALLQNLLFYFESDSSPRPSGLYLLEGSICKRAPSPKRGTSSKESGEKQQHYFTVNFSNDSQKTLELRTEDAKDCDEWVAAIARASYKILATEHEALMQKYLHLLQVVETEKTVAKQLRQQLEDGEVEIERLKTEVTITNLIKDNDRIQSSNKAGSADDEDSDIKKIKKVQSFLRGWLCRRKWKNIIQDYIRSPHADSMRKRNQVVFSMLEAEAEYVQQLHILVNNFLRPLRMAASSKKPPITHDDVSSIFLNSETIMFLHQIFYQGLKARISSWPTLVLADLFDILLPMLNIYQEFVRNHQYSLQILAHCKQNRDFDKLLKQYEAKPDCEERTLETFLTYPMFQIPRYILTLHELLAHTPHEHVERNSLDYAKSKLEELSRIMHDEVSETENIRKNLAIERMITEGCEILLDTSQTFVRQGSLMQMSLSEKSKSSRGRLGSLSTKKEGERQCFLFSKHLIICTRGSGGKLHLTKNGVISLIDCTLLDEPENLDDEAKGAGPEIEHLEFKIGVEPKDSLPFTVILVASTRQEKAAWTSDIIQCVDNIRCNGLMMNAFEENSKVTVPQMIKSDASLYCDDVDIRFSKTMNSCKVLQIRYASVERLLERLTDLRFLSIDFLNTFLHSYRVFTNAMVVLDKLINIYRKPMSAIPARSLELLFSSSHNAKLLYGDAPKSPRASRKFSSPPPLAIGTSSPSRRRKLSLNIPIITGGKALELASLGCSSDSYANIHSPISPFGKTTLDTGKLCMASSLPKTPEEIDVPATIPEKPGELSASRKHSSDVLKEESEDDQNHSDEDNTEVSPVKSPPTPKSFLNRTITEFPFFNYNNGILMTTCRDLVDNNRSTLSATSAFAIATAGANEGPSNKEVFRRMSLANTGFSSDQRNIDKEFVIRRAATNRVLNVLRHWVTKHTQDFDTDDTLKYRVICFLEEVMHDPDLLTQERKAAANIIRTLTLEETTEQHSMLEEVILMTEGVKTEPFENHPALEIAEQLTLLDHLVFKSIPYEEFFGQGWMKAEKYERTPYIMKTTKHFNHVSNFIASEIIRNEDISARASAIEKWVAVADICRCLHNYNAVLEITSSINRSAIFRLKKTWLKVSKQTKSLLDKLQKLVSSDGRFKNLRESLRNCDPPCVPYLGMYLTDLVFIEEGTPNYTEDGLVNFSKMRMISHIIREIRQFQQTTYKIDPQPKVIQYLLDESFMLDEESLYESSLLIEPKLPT
Test: pull-down / in vitro binding of NR2B fragments with in vitro translated RasGRF1
From the text: For in vitro translation, fragments of rat NR2B and rat RasGRF1 were made by PCR with 5′-primers containing AU1- and HA-tag encoding sequences; amplified sequences were subcloned into pcDNA3.1. For 293T transfection, the following cDNAs were used: mouse RasGRF1 in pcDNA3, GFP-rat NR2B, GFP rat NR2A in pcDNA1.1, and rat NR1 in pEGFP-C1 (Clontech). EGFP fusion constructs were made by subcloning cDNA fragments encoding different portions of NR2B and RasGRF1 into pEGFP-C1 (Clontech). EGFP fusion constructs were transferred from pEGFP into pSinRep5 and used for preparation of the Sindbis pseudovirus gene transfer system according to the manufacturer's protocol (Invitrogen, Carlsbad, Calif.).
Mouse RasGRF1 in pcDNA3 (Martegani, E., et al. (1992) EMBO J. 11, 2151-2157) was translated in vitro using the TNT system (Invitrogen) and [^35S]methionine. […]
For in vitro binding experiments, equimolar amounts of in vitro translated ^35S-labeled proteins (calculated from radioactivity of the excised protein band and cysteine content in the specific fragment) were incubated with a 3-fold molar excess of translated RasGRF1 for 30 min at 30° C., diluted with RIPA buffer, and immunoprecipitated with anti-HA-agarose (Santa Cruz). […]

B1: NR2B-BD: peptide of amino acids 886-1310 of the NR2B C-terminal domain that binds RasGRF1; used as NusA or EGFP fusion (protein)
chain: SPTATMNNTHSNILRLLRTAKNMANLSGVNGSPQSALDFIRRESSVYDISEHRRSFTHSDCKSYNNPPCEENLFSDYISEVERTFGNLQLKDSNVYQDHYHHHHRPHSIGSTSSIDGLYDCDNPPFTTQPRSISKKPLDIGLPSSKHSQLSDLYGKFSFKSDRYSGHDDLIRSDVSDISTHTVTYGNIEGNAAKRRKQQYKDSLKKRPASAKSRREFDEIELAYRRRPPRSPDHKRYFRDKEGLRDFYLDQFRTKENSPHWEHVDLTDIYKERSDDFKRDSVSGGGPCTNRSHLKHGTGEKHGVVGGVPAPWEKNLTNVDWEDRSGGNFCRSCPSKLHNYSSTVAGQNSGRQACIRCEACKKAGNLYDISKDNSLQELDQPAAPVAVTSNASSTKYPQSPTNSKAQKKNRNKLRRQHSYDTFVDL
modifications: left off: small tags and cut ends
notes: used as NusA or EGFP fusion
  binding to RasGRF1 in vitro: bound
